Measurements taken from paper PMC10246534.

Target: imdevimab (human)
Assay: SPR; Biacore T200; […]; HBS-EP, 25 °C; 1:1 binding model

Sequence of imdevimab (human) (heavy, as listed by the source, chain 1 of 2): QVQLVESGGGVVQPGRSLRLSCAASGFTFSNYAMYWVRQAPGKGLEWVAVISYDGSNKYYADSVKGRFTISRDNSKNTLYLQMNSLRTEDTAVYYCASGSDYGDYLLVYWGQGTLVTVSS
Sequence of imdevimab (human) (light, as listed by the source, chain 2 of 2): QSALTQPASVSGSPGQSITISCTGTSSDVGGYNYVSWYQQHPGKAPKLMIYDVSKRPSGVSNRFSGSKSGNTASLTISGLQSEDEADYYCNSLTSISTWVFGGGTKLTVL

Row | Substance | Kd [nM]
1 | Delta RBD + E406Q (from UniProt P0DTC2) (domain or fragment) | 8.9
2 | Delta RBD + G446S (from UniProt P0DTC2) (domain or fragment) | 734
3 | Delta RBD + L455S (from UniProt P0DTC2) (domain or fragment) | 9.1
4 | Delta RBD + Y453F (from UniProt P0DTC2) (domain or fragment) | 9.8

Target: sotrovimab
Assay: as above

Row | Substance | Kd [nM]
5 | BA.1 RBD + E340A (from UniProt P0DTC2) (domain or fragment) | 3420
6 | BA.1 RBD + E340D (from UniProt P0DTC2) (domain or fragment) | 764
7 | BA.1 RBD + E340K (from UniProt P0DTC2) (domain or fragment) | 3440
8 | BA.1 RBD + E340V (from UniProt P0DTC2) (domain or fragment) | 345
9 | BA.1 RBD + P337R (from UniProt P0DTC2) (domain or fragment) | 753
10 | BA.1 RBD + P337S (from UniProt P0DTC2) (domain or fragment) | 332

Target: casirivimab (human)
Assay: as above

Sequence of casirivimab (human) (heavy, as listed by the source, chain 1 of 2): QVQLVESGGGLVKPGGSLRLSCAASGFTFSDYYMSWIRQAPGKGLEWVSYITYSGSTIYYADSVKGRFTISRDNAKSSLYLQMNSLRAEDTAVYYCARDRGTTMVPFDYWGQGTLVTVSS
Sequence of casirivimab (human) (light, as listed by the source, chain 2 of 2): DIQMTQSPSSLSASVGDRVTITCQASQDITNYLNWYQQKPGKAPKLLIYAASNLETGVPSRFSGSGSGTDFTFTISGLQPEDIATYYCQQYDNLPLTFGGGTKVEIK

Row | Substance | Kd [nM]
11 | Delta RBD + E406D (from UniProt P0DTC2) (domain or fragment) | 7.1
12 | Delta RBD + G446S (from UniProt P0DTC2) (domain or fragment) | 0.56
13 | Delta RBD + G446V (from UniProt P0DTC2) (domain or fragment) | 0.64
14 | Delta RBD + G446V + L455F (from UniProt P0DTC2) (domain or fragment) | 69
15 | Delta RBD + Y453F (from UniProt P0DTC2) (domain or fragment) | 67
